One series concerns the target MYC 304-354 WT (RBRIII) (UniProt P01106-1 304-354). Nature of the series: fluorescence anisotropy. On the technique in general: Polarisation of emitted light reports the rotation of a fluorescent probe.
The target in the next series is MYC 304-354 RBRIIIMUT (UniProt P01106-1 304-354, R316A;K317A;R331A;R334A;R340A;K341A). Nature of the series: fluorescence anisotropy.

Chain of MYC 304-354 WT (RBRIII) (P01106 319-369): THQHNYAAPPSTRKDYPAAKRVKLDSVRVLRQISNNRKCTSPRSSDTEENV

B1: PTDSS2 RNA oligo (ssRNA)
RNA: GUGCAUGGGCAUGUGUGCUGUGUGUGUGCAGGCGACCGUAAACA
Turning to B1, the values for the binding result with MYC 304-354 WT (RBRIII) and in the series with MYC 304-354 RBRIIIMUT were “binds” and “no binding”, respectively.

The record behind these values is article doi:10.1101/2024.12.06.627168.
